Laboratory results published in patent US20240279325A1 (Chugai, published 2024).

T1: human FcγRIIa type H (allotype H131) extracellular domain with C-terminal His tag (human, UniProt P12318 34-217)
T1 construct: extracellular domain; also called FcγRIIaH; not shown: His tag at the C terminus
T1 sequence (looked up): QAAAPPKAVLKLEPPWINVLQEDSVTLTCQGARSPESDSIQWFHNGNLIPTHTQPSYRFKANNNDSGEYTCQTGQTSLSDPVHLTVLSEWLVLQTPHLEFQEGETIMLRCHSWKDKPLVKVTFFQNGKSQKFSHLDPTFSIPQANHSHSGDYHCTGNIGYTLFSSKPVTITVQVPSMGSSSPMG


Target: T2, human FcγRIa extracellular domain with C-terminal His tag (human, UniProt P12314 16-292)
T2 construct: not shown: His tag at the C terminus
T2 sequence (P12314 16-292): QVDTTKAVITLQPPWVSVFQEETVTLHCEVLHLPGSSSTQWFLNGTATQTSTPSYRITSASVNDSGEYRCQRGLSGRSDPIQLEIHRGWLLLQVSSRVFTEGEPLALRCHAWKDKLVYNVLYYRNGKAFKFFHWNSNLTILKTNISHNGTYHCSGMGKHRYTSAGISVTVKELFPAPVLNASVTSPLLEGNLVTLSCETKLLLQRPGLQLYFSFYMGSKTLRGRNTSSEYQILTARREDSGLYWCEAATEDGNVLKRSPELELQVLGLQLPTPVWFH
Experiment: SPR (Biacore), antibody captured, FcγR analyte

Kd | Binder
0.053 µM | IL6R-BP190/IL6R-L (antibody, human IgG1, kappa, name in EU numbering, EU numbering; copies: 2 + 2) heavy: QVQLQESGPGLVKPSETLSLTCAVSGHSISHDHAWSWVRQPPGEGLEWIGFISYSGITNYNPSLQGRVTISRDNSKNTLYLQMNSLRAEDTAVYYCARSLARTTAMDYWGEGTLVTVSSASTKGPSVFPLAPSSKSTSGGTAALGCLVKDYFPEPVTVSWNSGALTSGVHTFPAVLQSSGLYSLSSVVTVPSSSLGTQTYICNVNHKPSNTKVDKKVEPKSCDKTHTCPPCPAPELLGDDSVFLFPPKPKDTLMISRTPEVTCVVVDVSDEDGEVKFNWYVDGVEVHNAKTKPREEQYNSTYRVVSVLTVLHQDWLNGKEYKCKVSNKALPKPIEKTISKAKGQPREPQVYTLPPSRDELTKNQVSLTCLVKGFYPSDIAVEWESNGQPENNYKTTPPVLDSDGSFFLYSKLTVDKSRWQQGNVFSCSVMHEALHNHYTQESLSLSP light: not shown
0.055 µM | IL6R-BP210/IL6R-L (antibody, human IgG1, kappa, name in EU numbering, EU numbering; copies: 2 + 2) heavy: QVQLQESGPGLVKPSETLSLTCAVSGHSISHDHAWSWVRQPPGEGLEWIGFISYSGITNYNPSLQGRVTISRDNSKNTLYLQMNSLRAEDTAVYYCARSLARTTAMDYWGEGTLVTVSSASTKGPSVFPLAPSSKSTSGGTAALGCLVKDYFPEPVTVSWNSGALTSGVHTFPAVLQSSGLYSLSSVVTVPSSSLGTQTYICNVNHKPSNTKVDKKVEPKSCDKTHTCPPCPAPELLGDDSVFLFPPKPKDTLMISRTPEVTCVVVDVSDEDGEVKFNWYVDGVEVHNAKTKPREEQYNSTYRVVSVLTVLHQDWLNGKEYKCKVSNKALPRPIEKTISKAKGQPREPQVYTLPPSRDELTKNQVSLTCLVKGFYPSDIAVEWESNGQPENNYKTTPPVLDSDGSFFLYSKLTVDKSRWQQGNVFSCSVMHEALHNHYTQESLSLSP light: not shown

Further lines, the binder ahead of its results:

Binder | Kd
IL6R-BP185/IL6R-L (antibody, human IgG1, kappa, name in EU numbering, EU numbering; copies: 2 + 2) heavy: QVQLQESGPGLVKPSETLSLTCAVSGHSISHDHAWSWVRQPPGEGLEWIGFISYSGITNYNPSLQGRVTISRDNSKNTLYLQMNSLRAEDTAVYYCARSLARTTAMDYWGEGTLVTVSSASTKGPSVFPLAPSSKSTSGGTAALGCLVKDYFPEPVTVSWNSGALTSGVHTFPAVLQSSGLYSLSSVVTVPSSSLGTQTYICNVNHKPSNTKVDKKVEPKSCDKTHTCPPCPAPDYLGDDSVFLFPPKPKDTLMISRTPEVTCVVVDVSHEDGEVKFNWYVDGVEVHNAKTKPREEQYNSTYRVVSVLTVLHQDWLNGKEYKCKVSNAALPKPIEKTISKAKGQPREPQVYTLPPSRDELTKNQVSLTCLVKGFYPSDIAVEWESNGQPENNYKTTPPVLDSDGSFFLYSKLTVDKSRWQQGNVFSCSVMHEALHNHYTQESLSLSP light: not shown | 0.053 µM
IL6R-BP192/IL6R-L (antibody, human IgG1, kappa, name in EU numbering, EU numbering; copies: 2 + 2) heavy: QVQLQESGPGLVKPSETLSLTCAVSGHSISHDHAWSWVRQPPGEGLEWIGFISYSGITNYNPSLQGRVTISRDNSKNTLYLQMNSLRAEDTAVYYCARSLARTTAMDYWGEGTLVTVSSASTKGPSVFPLAPSSKSTSGGTAALGCLVKDYFPEPVTVSWNSGALTSGVHTFPAVLQSSGLYSLSSVVTVPSSSLGTQTYICNVNHKPSNTKVDKKVEPKSCDKTHTCPPCPAPDLLGGDSVFLFPPKPKDTLMISRTPEVTCVVVDVSDEDGEVKFNWYVDGVEVHNAKTKPREEQDNSTYRVVSVLTVLHQDWLNGKEYKCKVSNKALPKPIEKTISKAKGQPREPQVYTLPPSRDELTKNQVSLTCLVKGFYPSDIAVEWESNGQPENNYKTTPPVLDSDGSFFLYSKLTVDKSRWQQGNVFSCSVMHEALHNHYTQESLSLSP light: not shown | 0.0056 µM
IL6R-BP199/IL6R-L (antibody, human IgG1, kappa, name in EU numbering, EU numbering; copies: 2 + 2) heavy: QVQLQESGPGLVKPSETLSLTCAVSGHSISHDHAWSWVRQPPGEGLEWIGFISYSGITNYNPSLQGRVTISRDNSKNTLYLQMNSLRAEDTAVYYCARSLARTTAMDYWGEGTLVTVSSASTKGPSVFPLAPSSKSTSGGTAALGCLVKDYFPEPVTVSWNSGALTSGVHTFPAVLQSSGLYSLSSVVTVPSSSLGTQTYICNVNHKPSNTKVDKKVEPKSCDKTHTCPPCPAPDLLGGDSVFLFPPKPKDTLMISRTPEVTCVVVDVSHEDPEVKFNWYVDGVEVHNAKTKPREEQYNSTYRVVSVLTVLHQDWLNGKEYKCKVSNDALPRPIEKTISKAKGQPREPQVYTLPPSRDELTKNQVSLTCLVKGFYPSDIAVEWESNGQPENNYKTTPPVLDSDGSFFLYSKLTVDKSRWQQGNVFSCSVMHEALHNHYTQESLSLSP light: not shown | 0.0054 µM
IL6R-BP193/IL6R-L (antibody, human IgG1, kappa, name in EU numbering, EU numbering; copies: 2 + 2) heavy: QVQLQESGPGLVKPSETLSLTCAVSGHSISHDHAWSWVRQPPGEGLEWIGFISYSGITNYNPSLQGRVTISRDNSKNTLYLQMNSLRAEDTAVYYCARSLARTTAMDYWGEGTLVTVSSASTKGPSVFPLAPSSKSTSGGTAALGCLVKDYFPEPVTVSWNSGALTSGVHTFPAVLQSSGLYSLSSVVTVPSSSLGTQTYICNVNHKPSNTKVDKKVEPKSCDKTHTCPPCPAPDLLGGDSVFLFPPKPKDTLMISRTPEVTCVVVDVSDEDGEVKFNWYVDGVEVHNAKTKPREEQYNSTYRVVSVLTVLHQDWLNGKEYKCKVSNKALPKPIEKTISKAKGQPREPQVYTLPPSRDELTKNQVSLTCLVKGFYPSDIAVEWESNGQPENNYKTTPPVLDSDGSFFLYSKLTVDKSRWQQGNVFSCSVMHEALHNHYTQESLSLSP light: not shown | 0.0053 µM

Target: T1, human FcγRIIa type H (allotype H131) …
Experiment: SPR (Biacore), antibody captured, FcγR analyte

Kd | Binder
92 µM | IL6R-BP214/IL6R-L (antibody, human IgG1, kappa, name in EU numbering, EU numbering; copies: 2 + 2) heavy: QVQLQESGPGLVKPSETLSLTCAVSGHSISHDHAWSWVRQPPGEGLEWIGFISYSGITNYNPSLQGRVTISRDNSKNTLYLQMNSLRAEDTAVYYCARSLARTTAMDYWGEGTLVTVSSASTKGPSVFPLAPSSKSTSGGTAALGCLVKDYFPEPVTVSWNSGALTSGVHTFPAVLQSSGLYSLSSVVTVPSSSLGTQTYICNVNHKPSNTKVDKKVEPKSCDKTHTCPPCPAPDYLGDDSVFLFPPKPKDTLMISRTPEVTCVVVDVSHEDPEVKFNWYVDGVEVHNAKTKPREEQDNSTYRVVSVLTVLHQDWLNGKEYKCKVSNDALPKPIEKTISKAKGQPREPQVYTLPPSRDELTKNQVSLTCLVKGFYPSDIAVEWESNGQPENNYKTTPPVLDSDGSFFLYSKLTVDKSRWQQGNVFSCSVMHEALHNHYTQESLSLSP light: not shown
95 µM | IL6R-BP210/IL6R-L (antibody, human IgG1, kappa, name in EU numbering, EU numbering; copies: 2 + 2) heavy: QVQLQESGPGLVKPSETLSLTCAVSGHSISHDHAWSWVRQPPGEGLEWIGFISYSGITNYNPSLQGRVTISRDNSKNTLYLQMNSLRAEDTAVYYCARSLARTTAMDYWGEGTLVTVSSASTKGPSVFPLAPSSKSTSGGTAALGCLVKDYFPEPVTVSWNSGALTSGVHTFPAVLQSSGLYSLSSVVTVPSSSLGTQTYICNVNHKPSNTKVDKKVEPKSCDKTHTCPPCPAPELLGDDSVFLFPPKPKDTLMISRTPEVTCVVVDVSDEDGEVKFNWYVDGVEVHNAKTKPREEQYNSTYRVVSVLTVLHQDWLNGKEYKCKVSNKALPRPIEKTISKAKGQPREPQVYTLPPSRDELTKNQVSLTCLVKGFYPSDIAVEWESNGQPENNYKTTPPVLDSDGSFFLYSKLTVDKSRWQQGNVFSCSVMHEALHNHYTQESLSLSP light: not shown
69 µM | IL6R-BP201/IL6R-L (antibody, human IgG1, kappa, name in EU numbering, EU numbering; copies: 2 + 2) heavy: QVQLQESGPGLVKPSETLSLTCAVSGHSISHDHAWSWVRQPPGEGLEWIGFISYSGITNYNPSLQGRVTISRDNSKNTLYLQMNSLRAEDTAVYYCARSLARTTAMDYWGEGTLVTVSSASTKGPSVFPLAPSSKSTSGGTAALGCLVKDYFPEPVTVSWNSGALTSGVHTFPAVLQSSGLYSLSSVVTVPSSSLGTQTYICNVNHKPSNTKVDKKVEPKSCDKTHTCPPCPAPDLLGDDSVFLFPPKPKDTLMISRTPEVTCVVVDVSHEDGEVKFNWYVDGVEVHNAKTKPREEQYNSTYRVVSVLTVLHQDWLNGKEYKCKVSNKALPRPIEKTISKAKGQPREPQVYTLPPSRDELTKNQVSLTCLVKGFYPSDIAVEWESNGQPENNYKTTPPVLDSDGSFFLYSKLTVDKSRWQQGNVFSCSVMHEALHNHYTQESLSLSP light: not shown

Continued, binder first:

Binder | Kd
IL6R-BP208/IL6R-L (antibody, human IgG1, kappa, name in EU numbering, EU numbering; copies: 2 + 2) heavy: QVQLQESGPGLVKPSETLSLTCAVSGHSISHDHAWSWVRQPPGEGLEWIGFISYSGITNYNPSLQGRVTISRDNSKNTLYLQMNSLRAEDTAVYYCARSLARTTAMDYWGEGTLVTVSSASTKGPSVFPLAPSSKSTSGGTAALGCLVKDYFPEPVTVSWNSGALTSGVHTFPAVLQSSGLYSLSSVVTVPSSSLGTQTYICNVNHKPSNTKVDKKVEPKSCDKTHTCPPCPAPDLLGDDSVFLFPPKPKDTLMISRTPEVTCVVVDVSDEDGEVKFNWYVDGVEVHNAKTKPREEQYNSTYRVVSVLTVLHQDWLNGKEYKCKVSNKALPRPIEKTISKAKGQPREPQVYTLPPSRDELTKNQVSLTCLVKGFYPSDIAVEWESNGQPENNYKTTPPVLDSDGSFFLYSKLTVDKSRWQQGNVFSCSVMHEALHNHYTQESLSLSP light: not shown | 83 µM
IL6R-BP194/IL6R-L (antibody, human IgG1, kappa, name in EU numbering, EU numbering; copies: 2 + 2) heavy: QVQLQESGPGLVKPSETLSLTCAVSGHSISHDHAWSWVRQPPGEGLEWIGFISYSGITNYNPSLQGRVTISRDNSKNTLYLQMNSLRAEDTAVYYCARSLARTTAMDYWGEGTLVTVSSASTKGPSVFPLAPSSKSTSGGTAALGCLVKDYFPEPVTVSWNSGALTSGVHTFPAVLQSSGLYSLSSVVTVPSSSLGTQTYICNVNHKPSNTKVDKKVEPKSCDKTHTCPPCPAPDYLGDDSVFLFPPKPKDTLMISRTPEVTCVVVDVSDEDGEVKFNWYVDGVEVHNAKTKPREEQYNSTYRVVSVLTVLHQDWLNGKEYKCKVSNAALPKPIEKTISKAKGQPREPQVYTLPPSRDELTKNQVSLTCLVKGFYPSDIAVEWESNGQPENNYKTTPPVLDSDGSFFLYSKLTVDKSRWQQGNVFSCSVMHEALHNHYTQESLSLSP light: not shown | 85 µM
IL6R-BP186/IL6R-L (antibody, human IgG1, kappa, name in EU numbering, EU numbering; copies: 2 + 2) heavy: QVQLQESGPGLVKPSETLSLTCAVSGHSISHDHAWSWVRQPPGEGLEWIGFISYSGITNYNPSLQGRVTISRDNSKNTLYLQMNSLRAEDTAVYYCARSLARTTAMDYWGEGTLVTVSSASTKGPSVFPLAPSSKSTSGGTAALGCLVKDYFPEPVTVSWNSGALTSGVHTFPAVLQSSGLYSLSSVVTVPSSSLGTQTYICNVNHKPSNTKVDKKVEPKSCDKTHTCPPCPAPDYLGDDSVFLFPPKPKDTLMISRTPEVTCVVVDVSHEDGEVKFNWYVDGVEVHNAKTKPREEQDNSTYRVVSVLTVLHQDWLNGKEYKCKVSNAALPKPIEKTISKAKGQPREPQVYTLPPSRDELTKNQVSLTCLVKGFYPSDIAVEWESNGQPENNYKTTPPVLDSDGSFFLYSKLTVDKSRWQQGNVFSCSVMHEALHNHYTQESLSLSP light: not shown | 93 µM
